From patent US20240091375A1, “AN ANTIBODY FRAGMENT BASED ANTIMICROBIAL CONJUGATE SELECTIVELY TARGETING PSEUDOMONAS” (priority 2020, published 2024)

Columns and labels:
P. aeruginosa [1] = assay: Kill kinetics by ATP measurement (bacterial live dead assay); format: cell-based, Pseudomonas aeruginosa; settings: ATP at different time points, FIG. 7; Histatin 5 and Seq. ID 21 compared with each other
Source text: FIG. 7 is a representative graph showing the kill kinetics of Seq. ID 21, Seq. ID 6, on P. aeruginosa with Histatin 5, positive control—Meropenem, and negative controls—media and culture.
Kill kinetics was done by measuring the adenosine triphosphate (ATP) during different time points using the bacterial live dead assay. […] ID 21 was similar showing bactericidal activity was due to the released Histatin on contact with the Pseudomonas. A positive control used was antibacterial Meropenem drug to show the efficiency of killing. […] The VHH antibody Seq.

[2] = test system: whole cell Pseudomonas spp.; assay: Whole cell ELISA binding; settings: FIG. 6a
Source text: FIG. 6a is a representative graph depicting the binding affinity of Seq. ID21 and Seq. ID 6 to whole cell Pseudomonas spp. in an ELISA assay;
Whole cell ELISA using Pseudomonas spp. were used to determine the binding properties of the conjugate with Seq. ID 21, and VHH Seq. ID 6. […] ID 21. Both the molecules Seq. ID 21 and Seq.

P. aeruginosa [3] = assay: Turbidity test of P. aeruginosa culture; format: cell-based, Pseudomonas aeruginosa; settings: treated versus untreated control, visual, FIG. 4b
Experimental: FIG. 4b is a representative image of turbidity test of P. aeruginosa culture in the presence (Treated) and the absence (Control) of purified Seq. ID 21;
FIG. 4b represents a turbidity test, wherein sample of the pathogen P. aeruginosa was either left untreated (Control) or was treated by addition of purified Seq. ID 21 (Treated) prodrug.

Pseudomonas aeruginosa = assay: Microbiological agar-plate assay for bactericidal activity (MIC-99, MIC-50); format: cell-based; settings: for MIC-50 (minimal inhibitory concentration for killing 50% microorganisms) / MIC-99 (minimal inhibitory concentration for killing 99% microorganisms): in vitro, agar-plate assay; for MIC-99 (minimal inhibitory concentration for killing 99% microorganisms): FIG. 5, Seq. ID6 value printed with 'anaerobic conditions'
Experimental: FIG. 5 is representative microbiological agar-plate assay to determine MIC-99 of purified Seq. ID 21, and Seq. ID 6;
Microbiology assays were done with the purified VHH with Seq. ID 6 and the antibody fragment based antimicrobial conjugate of Seq. ID 21 to see their bactericidal activity. As depicted in FIG. 5, the MIC-99 of the Seq. […] ID21 with a value less than 0.5 μM. The MIC-50 of Seq. ID 6 antibody fragment alone was less than 2.5 μM and that of Seq. ID 21 was less than 0.125 μM.

Molecule	Bactericidal activity in kill kinetics (P. aeruginosa [1])	Binding ability to whole cell Pseudomonas spp. after conversion of the antibody to conjugate ([2]; ELISA)	Biological activity [2]	Turbidity of P. aeruginosa sample after treatment (P. aeruginosa [3])	Reduction of MIC-99 relative to Seq. ID6 antibody fragment alone (Pseudomonas aeruginosa; conjugate versus VHH alone)	MIC-50 (minimal inhibitory concentration for killing 50% microorganisms) (Pseudomonas aeruginosa)	MIC-99 (minimal inhibitory concentration for killing 99% microorganisms) (Pseudomonas aeruginosa)
Histatin 5 [reference compound]	similar	–	–	–	–	–	–
Seq. ID 21: 187 amino acid conjugate: human Histatin 5, Elastase B cleavage sequence RGGGLA, Gly-Ser linker, VHH Seq. ID6 (conjugate, Antibody fragment based antimicrobial conjugate, ID6) MGDSHAKRHHGYKRKFHEKHHSHRGYDVRGGGLAGGGGSGGGGSGGGGSHMDVQLQESGGASVQPGGSLLISCEASGLASYSNYCIMWFRQPPGKEREGVAGINLRSGITYYAEAVRPRFTISADSVDGRFAISQDNARNTVYLQMNSLKPEDTAIYYCAAGNLCGGSWSGYRYWGQGTQVTVSSLE	similar	no loss of binding ability	showed the desired biological activity	visually reduced	20 fold	less than 0.125 μM	less than 0.5 μM
Seq. ID 6: camelid heavy chain antibody variable region fragment (VHH) specific to Pseudomonas aeruginosa antigen C4 decarboxylase transporter (protein, listed as Camelus dromedarius) VHH: DVQLQESGGASVQPGGSLLISCEASGLASYSNYCIMWFRQPPGKEREGVAGINLRSGITYYAEAVRPRFTISADSVDGRFAISQDNARNTVYLQMNSLKPEDTAIYYCAAGNLCGGSWSGYRYWGQGTQVTVSS	–	–	showed the desired biological activity	–	–	less than 2.5 μM	10 µM
